Values of other authors as cited in US20240024427A1, “METHOD OF REDUCING INTRAOCULAR PRESSURE” (INVEX THERAPEUTICS LTD, priority 2020, published 2024).
Read-outs that look alike come from different tables or passages of the source.

Experiments:
[1] = conscious rat model, dosed subcutaneously, immediate release formulation

| Substance | Mean plasma terminal half-life (per SmPC) | further results |
| --- | --- | --- |
| Albiglutide | Approximately 5 days | – |
| Dulaglutide | 4.5 to 4.7 days | – |
| Lixisenatide | – | Mean plasma terminal half-life (per SmPC or FDA product label): Approximately 3 hours |
| Semaglutide | Approximately 1 week | – |
| exendin-4 | – | effect on intracranial pressure (ICP) compared to a saline control [1]: reduced ICP |
